Measured values taken from US20060034848A1 (published 2006).

Target: T1, LC-myc with the second NPxY motif mutated to APxA (UniProt Q07954 3944-4544, limits assumed)
T1 construct: domain: light chain (LC); The substitutions have no printed residue numbers; also called 2nd NPxY mutant; not shown: C-terminal myc tag
T1 sequence (looked up): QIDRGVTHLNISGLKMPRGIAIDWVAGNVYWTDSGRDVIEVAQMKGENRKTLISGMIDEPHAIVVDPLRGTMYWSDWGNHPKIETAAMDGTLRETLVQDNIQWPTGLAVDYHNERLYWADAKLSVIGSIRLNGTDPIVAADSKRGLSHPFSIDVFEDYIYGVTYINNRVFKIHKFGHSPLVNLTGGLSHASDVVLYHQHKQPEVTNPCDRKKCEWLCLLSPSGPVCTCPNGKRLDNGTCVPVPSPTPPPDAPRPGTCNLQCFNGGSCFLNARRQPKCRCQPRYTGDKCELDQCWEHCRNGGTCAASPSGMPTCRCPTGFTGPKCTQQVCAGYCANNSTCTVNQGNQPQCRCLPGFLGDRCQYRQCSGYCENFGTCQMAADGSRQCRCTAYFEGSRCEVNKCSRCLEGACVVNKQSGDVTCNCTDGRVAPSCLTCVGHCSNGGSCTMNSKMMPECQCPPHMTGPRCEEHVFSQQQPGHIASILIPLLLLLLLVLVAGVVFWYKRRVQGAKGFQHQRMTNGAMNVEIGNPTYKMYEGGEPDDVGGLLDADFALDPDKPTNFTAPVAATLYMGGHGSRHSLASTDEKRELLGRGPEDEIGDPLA
Assay: FLIM/FRET in cells

- binding result: binds
B1: BACE (wild type; tag of the construct not stated at that place) (enzyme, human, UniProt P56817 46-501, looked up)
chain: ETDEEPEEPGRRGSFVEMVDNLRGKSGQGYYVEMTVGSPPQTLNILVDTGSSNFAVGAAPHPFLHRYYQRQLSSTYRDLRKGVYVPYTQGKWEGELGTDLVSIPHGPNVTVRANIAAITESDKFFINGSNWEGILGLAYAEIARPDDSLEPFFDSLVKQTHVPNLFSLQLCGAGFPLNQSEVLASVGGSMIIGGIDHSLYTGSLWYTPIRREWYYEVIIVRVEINGQDLKMDCKEYNYDKSIVDSGTTNLRLPKKVFEAAVKSIKAASSTEKFPDGFWLGEQLVCWQAGTTPWNIFPVISLYLMGEVTNQSFRITILPQQYLRPVEDVATSQDDCYKFAISQSSTGTVMGAVIMEGFYVVFDRARKRIGFAVSACHVHDEFRTAAVEGPFVTLDMEDCGYNIPQTDESTLMTIAYVMAAICALFMLPLCLMVCQWRCLRCLRQQHDDFADDISLLK
notes: whole, on cells; Used for the sentences that say only BACE or WT-BACE (NPxY mutant FLIM, Fe65 and mDab1 FRET, shedding, CTF and luciferase assays); also called WT-BACE
